Experimental data published in publication PMC9791688, “Bioluminescence Goes Dark: Boosting the Performance of Bioluminescent Sensor Proteins Using Complementation Inhibitors” (ACS Sensors, 2022).

Molecular target: T1, LgBiT (C-terminal GTTSA linker and Strep-tag (WSHPQFEK) omitted)
T1 chain: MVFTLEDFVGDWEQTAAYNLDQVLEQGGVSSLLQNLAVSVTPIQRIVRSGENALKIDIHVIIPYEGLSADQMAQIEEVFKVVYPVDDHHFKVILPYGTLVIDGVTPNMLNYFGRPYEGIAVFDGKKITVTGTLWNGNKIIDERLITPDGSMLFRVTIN
Assay: split reporter (BiFC, NanoBiT); competition: DarkBiT101 titrated to 75 pM SmBiT86 and 0.75 nM LgBiT, loss of luminescence; 1x PBS, 0.02% Tween20, 4 °C for 16 h before addition of 1:1000 NanoGlo
Details: both partners purified

Binder: VTGYALFEKES [DarkBiT101 peptide]
- Ki: 2.6 ± 0.4 µM
